In patent CN118063606A (JIANGXI SAIJI BIOTECHNOLOGY CO LTD; HANGZHOU SAIJI …, dated 2024):

Legend:
[1] = biological target: 重组人THSD7A蛋白 (recombinant human THSD7A protein) (human) (UniProt Q9UPZ6); test: indirect ELISA on coated THSD7A, value read from the curve of the anti-THSD7A human serum standard
[2] = biological target: 重组人THSD7A蛋白 (recombinant human THSD7A protein) (human) (UniProt Q9UPZ6); test: indirect ELISA on coated THSD7A, serum standard read on the rhA3 standard curve
[3] = biological target: 重组人THSD7A蛋白 (recombinant human THSD7A protein) (human) (UniProt Q9UPZ6); test: indirect ELISA on coated THSD7A, against the anti-THSD7A human serum standard
[4] = biological target: T1, 重组人THSD7A蛋白 (recombinant human THSD7A protein) (human, UniProt Q9UPZ6 48-1606); test: phage ELISA / ELISA of supernatants on the antigen, then chemiluminescence immunoassay of purified antibody
T1 construct: Expressed by transient transfection of 293T cells; no tag is mentioned; also called hTHSD7A; 人源THSD7A
T1 sequence (Q9UPZ6 48-1606 limits assumed): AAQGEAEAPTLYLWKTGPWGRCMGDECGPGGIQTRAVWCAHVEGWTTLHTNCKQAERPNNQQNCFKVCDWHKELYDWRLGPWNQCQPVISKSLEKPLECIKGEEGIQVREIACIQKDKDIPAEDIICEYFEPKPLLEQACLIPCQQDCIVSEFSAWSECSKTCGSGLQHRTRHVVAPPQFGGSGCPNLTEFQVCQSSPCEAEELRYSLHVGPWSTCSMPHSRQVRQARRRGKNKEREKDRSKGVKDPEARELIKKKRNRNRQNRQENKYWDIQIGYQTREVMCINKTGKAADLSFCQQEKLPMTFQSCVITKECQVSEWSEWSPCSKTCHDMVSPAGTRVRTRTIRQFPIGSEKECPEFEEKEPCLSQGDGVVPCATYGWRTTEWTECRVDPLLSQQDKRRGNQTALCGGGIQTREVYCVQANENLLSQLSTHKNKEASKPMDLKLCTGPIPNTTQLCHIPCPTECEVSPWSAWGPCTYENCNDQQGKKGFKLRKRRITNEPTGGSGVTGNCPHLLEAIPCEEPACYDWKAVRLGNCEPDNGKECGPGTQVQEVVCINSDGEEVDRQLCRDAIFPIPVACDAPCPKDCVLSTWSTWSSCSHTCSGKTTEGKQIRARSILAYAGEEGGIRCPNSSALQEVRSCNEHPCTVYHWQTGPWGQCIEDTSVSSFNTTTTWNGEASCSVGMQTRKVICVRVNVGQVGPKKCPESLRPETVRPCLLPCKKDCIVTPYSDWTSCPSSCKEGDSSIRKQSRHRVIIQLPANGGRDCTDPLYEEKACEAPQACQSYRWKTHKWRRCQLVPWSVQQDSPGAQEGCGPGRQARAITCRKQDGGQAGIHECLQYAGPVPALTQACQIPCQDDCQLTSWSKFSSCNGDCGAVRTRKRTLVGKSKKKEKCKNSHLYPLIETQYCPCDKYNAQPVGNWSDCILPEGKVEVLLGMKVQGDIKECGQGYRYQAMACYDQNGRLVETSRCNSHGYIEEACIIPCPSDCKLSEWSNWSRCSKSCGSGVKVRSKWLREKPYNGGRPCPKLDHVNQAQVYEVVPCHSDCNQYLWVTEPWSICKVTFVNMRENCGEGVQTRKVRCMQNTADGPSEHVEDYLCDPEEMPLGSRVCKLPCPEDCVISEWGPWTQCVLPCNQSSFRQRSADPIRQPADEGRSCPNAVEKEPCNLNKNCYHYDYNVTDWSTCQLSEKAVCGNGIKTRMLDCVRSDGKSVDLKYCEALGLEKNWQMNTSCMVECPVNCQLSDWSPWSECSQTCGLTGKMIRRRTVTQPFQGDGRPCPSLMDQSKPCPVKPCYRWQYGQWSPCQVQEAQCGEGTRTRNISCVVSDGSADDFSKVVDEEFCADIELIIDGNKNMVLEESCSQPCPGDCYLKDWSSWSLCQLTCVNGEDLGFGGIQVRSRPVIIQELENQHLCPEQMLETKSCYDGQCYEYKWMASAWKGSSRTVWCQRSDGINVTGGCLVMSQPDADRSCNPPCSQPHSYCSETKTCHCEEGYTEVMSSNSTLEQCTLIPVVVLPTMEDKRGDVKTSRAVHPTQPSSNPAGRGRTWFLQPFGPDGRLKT

Row | Binder | THSD7A抗体浓度 (read from serum standard curve) at 4ng/mL rhA3 [1] [U/mL] | THSD7A抗体浓度 (read from serum standard curve) at 20ng/mL rhA3 [1] [U/mL] | THSD7A抗体浓度 (read from serum standard curve) at 100ng/mL rhA3 [1] [U/mL] | 比活 (serum standard 12U/mL on rhA3 curve) [2] [U/ng] | 比活 (serum standard 60U/mL on rhA3 curve) [2] [U/ng] | 比活 (serum standard 300U/mL on rhA3 curve) [2] [U/ng] | THSD7A抗体活性 per ng [3] [U/ng] | 比活 at 4ng/mL rhA3 [3] [U/ng] | 比活 at 20ng/mL rhA3 [3] [U/ng] | 比活 at 100ng/mL rhA3 [3] [U/ng] | binding result [4]
1 | 嵌合单抗rhA3 (重组嵌合抗体A3单抗) (antibody, human IgG4 S228P, kappa, V domains shown) VH: QSVKESGGRLVTPGGTLTLTCTVSGFSLSTYYMSWVRQAPGKGLEWIGSIESYGDRYYATWAKGRFTISKTSSTTVDLKMTSLTASDTATYFCTRNDLSWDNDNIWGPGTLVTVSS VL: DVQMTQTPSSVSVSVGGTVTINCQASQSVYGNNELNWYQQKSGQPPKLLIYKAGTLASGVPSRFSGSGSGTQFTLTISDLECDDAAIYYCQGGYWGQRAFGGGTKLEIKR | 12 | 60.5 | 305 | 3.01 | 2.97 | 2.97 | 3 | 3.01 | 2.99 | 3.05 | 
2 | 小鼠抗THSD7A单抗A3 (antibody, V domains shown, Selected from a phage scFv library of immunised mice; variable regions cloned into a eukaryotic expression vector and expressed in 293T cells) VH: QSVKESGGRLVTPGGTLTLTCTVSGFSLSTYYMSWVRQAPGKGLEWIGSIESYGDRYYATWAKGRFTISKTSSTTVDLKMTSLTASDTATYFCTRNDLSWDNDNIWGPGTLVTVSS VL: DVQMTQTPSSVSVSVGGTVTINCQASQSVYGNNELNWYQQKSGQPPKLLIYKAGTLASGVPSRFSGSGSGTQFTLTISDLECDDAAIYYCQGGYWGQRAFGGGTKLEIK |  |  |  |  |  |  |  |  |  |  | binds
